In paper PMC2361330 (British Journal of Cancer, 2006):

Molecular target: Vascular endothelial growth factor receptor 1 (human (endogenous in HT29), UniProt P17948 27-1338)
Assay: cell-based or functional assay

Chain of Vascular endothelial growth factor receptor 1 (P17948 27-1338): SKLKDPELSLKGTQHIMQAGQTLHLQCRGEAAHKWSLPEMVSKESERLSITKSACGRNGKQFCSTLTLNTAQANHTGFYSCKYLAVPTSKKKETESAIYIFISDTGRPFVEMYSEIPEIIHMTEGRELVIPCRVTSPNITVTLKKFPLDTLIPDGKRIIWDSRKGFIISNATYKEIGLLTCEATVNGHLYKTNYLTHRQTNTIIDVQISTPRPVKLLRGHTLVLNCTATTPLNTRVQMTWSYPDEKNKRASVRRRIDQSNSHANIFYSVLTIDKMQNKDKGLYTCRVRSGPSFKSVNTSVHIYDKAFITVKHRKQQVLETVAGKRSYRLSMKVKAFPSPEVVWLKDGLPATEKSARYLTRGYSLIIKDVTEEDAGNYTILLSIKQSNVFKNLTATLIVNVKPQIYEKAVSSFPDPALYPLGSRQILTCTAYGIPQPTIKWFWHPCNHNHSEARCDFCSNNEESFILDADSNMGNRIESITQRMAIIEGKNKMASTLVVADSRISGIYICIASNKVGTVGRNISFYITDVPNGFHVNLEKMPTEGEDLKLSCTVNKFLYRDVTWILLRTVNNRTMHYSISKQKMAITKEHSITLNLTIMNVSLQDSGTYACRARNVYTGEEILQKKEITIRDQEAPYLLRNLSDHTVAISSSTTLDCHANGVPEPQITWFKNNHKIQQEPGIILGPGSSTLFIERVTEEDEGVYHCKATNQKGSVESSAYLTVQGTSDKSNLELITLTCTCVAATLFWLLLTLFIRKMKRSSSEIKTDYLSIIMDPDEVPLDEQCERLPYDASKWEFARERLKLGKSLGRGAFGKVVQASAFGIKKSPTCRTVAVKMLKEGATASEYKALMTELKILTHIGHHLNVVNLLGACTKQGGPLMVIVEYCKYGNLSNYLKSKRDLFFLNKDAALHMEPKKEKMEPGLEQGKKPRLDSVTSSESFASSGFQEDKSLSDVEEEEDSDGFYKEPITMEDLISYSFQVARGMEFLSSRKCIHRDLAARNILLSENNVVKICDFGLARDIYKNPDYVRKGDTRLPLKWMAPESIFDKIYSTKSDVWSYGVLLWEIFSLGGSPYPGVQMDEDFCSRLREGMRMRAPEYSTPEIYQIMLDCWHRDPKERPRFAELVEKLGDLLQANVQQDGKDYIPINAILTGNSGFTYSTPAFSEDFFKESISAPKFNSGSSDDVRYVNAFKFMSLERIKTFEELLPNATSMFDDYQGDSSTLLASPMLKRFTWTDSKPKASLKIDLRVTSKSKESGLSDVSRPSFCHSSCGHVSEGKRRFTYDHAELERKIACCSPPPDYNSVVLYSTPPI

B1: Yes (enzyme)
chain: not shown
  Yes kinase activity by immune complex kinase assay in HT29 cells treated with VEGF-A (10 ng ml^−1) for 0-15 min: ~2.5 fold
